We go through five substances from patent EP1676860A1.

This experiment deals with thrombin. Briefly: cell-based or functional assay.

As to “ATIII DG44 peak (1) fraction (recombinant human antithrombin III produced by the CHO/DG44 transformant pKAN-ATIII AFDG44, heparin-affinity peak (1)) (from UniProt P01008 33-464)”, the Secondary rate constant (+ hep): thrombin inhibition secondary rate constant in the presence of heparin is 8.7e+06 M⁻¹ s⁻¹ and the Secondary rate constant (- hep): thrombin inhibition secondary rate constant in the absence of heparin is 7700 M⁻¹ s⁻¹.

As for “ATIII DG44 peak (2) fraction (recombinant human antithrombin III produced by the CHO/DG44 transformant pKAN-ATIII AFDG44, heparin-affinity peak (2)) (from UniProt P01008 33-464)”, the Secondary rate constant (+ hep): thrombin inhibition secondary rate constant in the presence of heparin stood at 2e+07 M⁻¹ s⁻¹ and the Secondary rate constant (- hep): thrombin inhibition secondary rate constant in the absence of heparin came to 8600 M⁻¹ s⁻¹.

As to “ATIII MS705 peak (2) fraction (recombinant human antithrombin III produced by the FUT8 gene-double-knockout CHO/DG44 transformant pKAN-ATIII AFMS705, heparin-affinity peak (2)) (from UniProt P01008 33-464)”, the Secondary rate constant (+ hep): thrombin inhibition secondary rate constant in the presence of heparin was 2.5e+07 M⁻¹ s⁻¹.

For “ATIII MS705 peak (3) fraction (recombinant human antithrombin III produced by the FUT8 gene-double-knockout CHO/DG44 transformant pKAN-ATIII AFMS705, heparin-affinity peak (3)) (from UniProt P01008 33-464)”, the Secondary rate constant (+ hep): thrombin inhibition secondary rate constant in the presence of heparin came out at 2.6e+07 M⁻¹ s⁻¹ and the Secondary rate constant (- hep): thrombin inhibition secondary rate constant in the absence of heparin came out at 8800 M⁻¹ s⁻¹.

Turning to “Neuart (human plasma-derived antithrombin III preparation, manufactured by Mitsubishi Pharma Corporation) (from UniProt P01008 33-464)”, the Secondary rate constant (+ hep): thrombin inhibition secondary rate constant in the presence of heparin turned out to be 2.3e+07 M⁻¹ s⁻¹ and the Secondary rate constant (- hep): thrombin inhibition secondary rate constant in the absence of heparin stood at 8200 M⁻¹ s⁻¹.
